Experimental data published in article doi:10.1101/2020.08.05.237438 (bioRxiv, 2020).

Key:
[1] = target: recombinant caseinolytic protease ClpP1 of Leptospira interrogans (L. interrogans serovar Copenhageni, UniProt Q72SG6 1-198); assay: dynamic light scattering
[2] = target: recombinant ClpP1 S98A active-site mutant of Leptospira interrogans (L. interrogans serovar Copenhageni, UniProt Q72SG6 1-198, S98A); assay: dynamic light scattering

binding result [1]	binding result [2]	Binder
binds	–	recombinant ClpP2 S97A active-site mutant of Leptospira interrogans (enzyme, L. interrogans serovar Copenhageni, UniProt Q72R01 1-197, looked up) MPETEKIAEVFEELTGSKISKNFLDHRKIFLWGPVTDESSKDLVGKLLYLEMKDPGKKITFYINSPGGVVTSGMTVFDTIKMISSPVHTVCMGMAAAMGSVLLAAGTKGERSIWPNGKVMIHQPSIGGQIVAPATDLKIHAEEILKTKTKLNQILADACGHPISKLEEDTDRDYYMDAEEAIKYGIVDKLATKIDFN
binds	binds	recombinant caseinolytic protease ClpP2 of Leptospira interrogans (enzyme, L. interrogans serovar Copenhageni, UniProt Q72R01 1-197, looked up) MPETEKIAEVFEELTGSKISKNFLDHRKIFLWGPVTDESSKDLVGKLLYLEMKDPGKKITFYINSPGGVVTSGMTVFDTIKMISSPVHTVCMGMAASMGSVLLAAGTKGERSIWPNGKVMIHQPSIGGQIVAPATDLKIHAEEILKTKTKLNQILADACGHPISKLEEDTDRDYYMDAEEAIKYGIVDKLATKIDFN
